# From paper PMC11735997
# Target: Trichoplusia ni acetyl-coenzyme A carboxylase (Trichoplusia ni (endogenous in T. ni cells))
# Assay: cryo-EM structure; endogenous T. ni ACC (~2 uM) in 25 mM Hepes pH 8.0, 150 mM NaCl, 1 mM TCEP; refined with C2 symmetry to 3.12 Å; only the CT domain (1622-2396) modelled
substance,measurement,value
Trichoplusia ni acetyl-coenzyme A carboxylase,stoichiometry N,2
